Source: PMC3915414

Columns and labels:
Experiment in all cases: solid-phase binding assay
[1] = target: alpha-dystroglycan from wild-type (C57BL/10) mouse heart (mouse (endogenous in heart)) (UniProt Q62165)
[2] = target: alpha-dystroglycan from dystrophin/utrophin-deficient (dko) mouse heart (mouse (endogenous in heart)) (UniProt Q62165)
[3] = target: alpha-dystroglycan from dystrophin-deficient (mdx) mouse heart (mouse (endogenous in heart)) (UniProt Q62165)

- Kd [1]: 21.2 nM
- Kd [2]: 18.8 nM
- Kd [3]: 33 nM
Substance: Engelbreth-Holm-Swarm (EHS) laminin (from UniProt P19137 25-3083; P02469 22-1786; P02468 34-1607) (complex)
